# Results published in patent US20240228562A1 (Pieris, published 2024).
# Substitutions are numbered along the chain they refer to.
# T1: recombinant human CTGF protein (R&D Systems, SEQ ID NO: 79) (human, UniProt P29279 27-349)
# T1 construct: Bought; also called human CTGF/CNN2; huCTGF
# T1 sequence: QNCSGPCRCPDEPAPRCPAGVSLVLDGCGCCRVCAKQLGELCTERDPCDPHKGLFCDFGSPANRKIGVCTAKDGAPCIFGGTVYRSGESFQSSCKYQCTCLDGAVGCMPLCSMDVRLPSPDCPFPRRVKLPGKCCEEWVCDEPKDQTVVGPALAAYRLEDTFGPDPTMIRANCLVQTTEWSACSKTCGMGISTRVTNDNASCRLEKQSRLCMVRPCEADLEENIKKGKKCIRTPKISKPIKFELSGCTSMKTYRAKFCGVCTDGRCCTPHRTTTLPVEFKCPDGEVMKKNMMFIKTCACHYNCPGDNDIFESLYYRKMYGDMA
# B1: fusion protein of SEQ ID NO: 65 (designed binder)
# chain: QDSTSDLIPAPPLSKVPLQQNFQDNQFHGKWYVVGRAGNNRLREDKDPPKMWATIYELKEDKSYDVTHVHFMTKKCRYIIDTFVPGSQPGEFTLGAIKSGPGMTSPLVRIVSTNYNQHAMVFFKWVNQNREWFTITLYGRTKELTSELKENFIRFSKSLGLPENHIVFPVPIDQCIDGGGGGSGGGGSGGGGSQDSTSDLIPAPPLSKVPLQQNFQDNQFHGKWYVVGLAGNKILRIDKQPAKMFATIYELKEDKSYDVTSVRFEARSCSYTIKTFVPGSQPGEFTAGNIKSAPGQTSTLVRVVSTNYNQHAMVFFKHVSQNRETFVITLYGRTKELTSELKENFIRFSKSLGLPENHIVFPVPIDQCIDG
# B2: fusion protein of SEQ ID NO: 66 (designed binder)
# chain: QDSTSDLIPAPPLSKVPLQQNFQDNQFHGKWYVVGLAGNKILRIDKQPAKMFATIYELKEDKSYDVTSVRFEARSCSYTIKTFVPGSQPGEFTAGNIKSAPGQTSTLVRVVSTNYNQHAMVFFKHVSQNRETFVITLYGRTKELTSELKENFIRFSKSLGLPENHIVFPVPIDQCIDGGGGGSGGGGSGGGGSQDSTSDLIPAPPLSKVPLQQNFQDNQFHGKWYVVGRAGNNRLREDKDPPKMWATIYELKEDKSYDVTHVHFMTKKCRYIIDTFVPGSQPGEFTLGAIKSGPGMTSPLVRIVSTNYNQHAMVFFKWVNQNREWFTITLYGRTKELTSELKENFIRFSKSLGLPENHIVFPVPIDQCIDG
# B3: fusion protein of SEQ ID NO: 67 (designed binder)
# chain: QDSTSDLIPAPPLSKVPLQQNFQDNQFHGKWYVVGLAGNKILRIDKQPAKMFATIYELKEDKSYDVTSVRFEARSCSYTIKTFVPGSQPGEFTAGNIKSAPGQTSTLVRVVSTNYNQHAMVFFKHVSQNRETFVITLYGRTKELTSELKENFIRFSKSLGLPENHIVFPVPIDQCIDGGGGGSGGGGSGGGGSQDSTSDLIPAPPLSKVPLQQNFQDNQFHGKWYVVGWAGNIKLREDKDPFKMSATIYELKEDKSYDVTEVVFEQKKCHYIIKTFVPGSQPGEFTLGDIKSPPGETSSLVRVVSTNYNQHAMVFFKKVFQNREFFWITLYGRTKELTSELKENFIRFSKSLGLPENHIVFPVPIDQCIDG
# B4: fusion protein of SEQ ID NO: 63 (designed binder)
# chain: QDSTSDLIPAPPLSKVPLQQNFQDNQFQGKWYVVGRAGNNQLREDKSPPKMWATIYELKEDKSYDVTHVHFSTKKCRYIIDTFVPGSQPGEFTAGAIKSGPGLTSPLVRVVSTNYNQHAMVFFKWVTQNREWFTITLYGRTKELTSELKENFIRFSKSLGLPENHIVFPVPIDQCIDGGGGGSGGGGSGGGGSQDSTSDLIPAPPLSKVPLQQNFQDNQFQGKWYVVGLAGNAILREDKQPAKMFATIYELKEDKSYDVTSVRFEAKSCKYTIKTFVPGSQPGEFTAGYIKSAPGQTSTLVRVVSTNYNQHAMVFFKHVTQNREIFVITLYGRTKELTSELKENFIRFSKSLGLPENHIVFPVPIDQCIDG
# notes: not shown: C-terminal His-tag
# B5: fusion protein of SEQ ID NO: 64 (designed binder)
# chain: QDSTSDLIPAPPLSKVPLQQNFQDNQFQGKWYVVGLAGNYRLREDKDPSKMGATIYELKEDKSYDVTQVQFDDKKCLYVIETFVPGSQPGEFTLGAIKSYPGLTSQLVRVVSTNYNQHAMVFVKKVWPNLEYFQIVLYGRTKELTSELKENFIRFSKSLGLPENHIVFPVPIDQCIDGGGGGSGGGGSGGGGSQDSTSDLIPAPPLSKVPLQQNFQDNQFQGKWYVVGLAGNAILREDKQPAKMFATIYELKEDKSYDVTSVRFEAKSCKYTIKTFVPGSQPGEFTAGYIKSAPGQTSTLVRVVSTNYNQHAMVFFKHVTQNREIFVITLYGRTKELTSELKENFIRFSKSLGLPENHIVFPVPIDQCIDG
# notes: not shown: C-terminal His-tag
# B6: fusion protein of SEQ ID NO: 69 (designed binder)
# chain: QDSTSDLIPAPPLSKVPLQQNFQDNQFQGKWYVVGLAGNAILREDKQPAKMFATIYELKEDKSYDVTSVRFEAKSCSYTSKTFVPGSQPGEFTAGNIKSAPGQTSTLVRVVSTNYNQHAMVFFKHVSQNRETFVITLYGRTKELTSELKENFIRFSKSLGLPENHIVFPVPIDQCIDGGGGGSGGGGSGGGGSQDSTSDLIPAPPLSKVPLQQNFQDNQFQGKWYVVGLAGNYRLREDKDPSKMGATIYELKEDKSYDVTQVQFDDKKCLYVIETFVPGSQPGEFTLGAIKSYPGLTSQLVRVVSTNYNQHAMVFVKKVWPNLEYFQIVLYGRTKELTSELKENFIRFSKSLGLPENHIVFPVPIDQCIDG
# notes: not shown: C-terminal His-tag
# B7: fusion protein of SEQ ID NO: 72 (designed binder)
# chain: B6 chain with Q47Y, A73N, S77V, S80I, A94T, T132F
# notes: not shown: C-terminal His-tag
# B8: fusion protein of SEQ ID NO: 75 (designed binder)
# chain: B6 chain with S77K, S80I, N96Y, S127T, T132I
# notes: not shown: C-terminal His-tag
# B9: fusion protein of SEQ ID NO: 70 (designed binder)
# chain: QDSTSDLIPAPPLSKVPLQQNFQDNQFQGKWYVVGWAGNVKLREDKQPQKMSATIYELKEDKSYDVTEVVFEQKKCHYIIKTFVPGSQPGEFTAGDIKSPPGYTSSLVRVVSTNYNQHAMVFFKKVSQNREFFWITLYGRTKELTSELKENFIRFSKSLGLPENHIVFPVPIDQCIDGGGGGSGGGGSGGGGSQDSTSDLIPAPPLSKVPLQQNFQDNQFQGKWYVVGLAGNAILREDKQPAKMFATIYELKEDKSYDVTSVRFEAKSCKYTIKTFVPGSQPGEFTAGYIKSAPGQTSTLVRVVSTNYNQHAMVFFKHVTQNREIFVITLYGRTKELTSELKENFIRFSKSLGLPENHIVFPVPIDQCIDG
# notes: not shown: C-terminal His-tag
# B10: fusion protein of SEQ ID NO: 68 (designed binder)
# chain: QDSTSDLIPAPPLSKVPLQQNFQDNQFQGKWYVVGLAGNAILREDKQPAKMFATIYELKEDKSYDVTSVRFEAKSCSYTSKTFVPGSQPGEFTAGNIKSAPGQTSTLVRVVSTNYNQHAMVFFKHVSQNRETFVITLYGRTKELTSELKENFIRFSKSLGLPENHIVFPVPIDQCIDGGGGGSGGGGSGGGGSQDSTSDLIPAPPLSKVPLQQNFQDNQFQGKWYVVGWAGNVKLREDKQPQKMSATIYELKEDKSYDVTEVVFEQKKCHYIIKTFVPGSQPGEFTAGDIKSPPGYTSSLVRVVSTNYNQHAMVFFKKVSQNREFFWITLYGRTKELTSELKENFIRFSKSLGLPENHIVFPVPIDQCIDG
# notes: not shown: C-terminal His-tag
# B11: fusion protein of SEQ ID NO: 73 (designed binder)
# chain: B10 chain with Q47Y, A73N, S77V, A94T, T132F
# notes: not shown: C-terminal His-tag
# B12: fusion protein of SEQ ID NO: 71 (designed binder)
# chain: B10 chain with Q47Y, A73N, S77V, S80I, A94T, T132F
# notes: not shown: C-terminal His-tag
# B13: fusion protein of SEQ ID NO: 62 (designed binder)
# chain: QDSTSDLIPAPPLSKVPLQQNFQDNQFQGKWYVVGRAGNNQLREDKSPPKMWATIYELKEDKSYDVTHVHFSTKKCRYIIDTFVPGSQPGEFTAGAIKSGPGLTSPLVRVVSTNYNQHAMVFFKWVTQNREWFTITLYGRTKELTSELKENFIRFSKSLGLPENHIVFPVPIDQCIDGGGGGSGGGGSGGGGSQDSTSDLIPAPPLSKVPLQQNFQDNQFQGKWYVVGWAGNVKLREDKQPQKMSATIYELKEDKSYDVTEVVFEQKKCHYIIKTFVPGSQPGEFTAGDIKSPPGYTSSLVRVVSTNYNQHAMVFFKKVSQNREFFWITLYGRTKELTSELKENFIRFSKSLGLPENHIVFPVPIDQCIDG
# notes: not shown: C-terminal His-tag
# Target: T1, recombinant human CTGF protein (R&D …)
# Assay: ELISA, coated human CTGF
# Method: Binding of fusion proteins was tested by an ELISA assay. In detail, a 384-well plate suitable for fluorescence measurements (Greiner FLUOTRAC™ 600, black flat bottom, high-binding) was coated with 20 μl of human CTGF (R&D Systems) at a concentration of 1 μg/ml in PBS over night at 4° C. After washing with PBS with 0.05% Tween 20, wells were blocked with 100 μl blocking buffer containing 0.1% Tween 20 and 2% BSA (PBS-T/BSA) for 1 h at room temperature. 20 μl of serially diluted muteins were incubated in PBS-T/BSA for 1 h at room temperature (RT).
# The residual supernatants were discarded and 20 μl HRP-labeled anti-NGAL or anti-His-Tag antibody was added at a predetermined optimal concentration in PBS-T/BSA and incubated for 1 h at RT. After washing, 20 μl fluorogenic HRP substrate (QuantaBlu, Thermo) was added to each well, and the reaction was allowed to proceed for 2 to 60 minutes. The fluorescence intensity of every well on the plate was read using a fluorescence microplate reader (Tecan). Curve fitting was performed using GraphPad Prism 7 or 8 software.
row,EC50 [nM],Binder
1,0.61,B1
2,1.2,B2
3,1,B3

# Target: T1, recombinant human CTGF protein (R&D …)
# Assay: HTRF, 1 nM biotinylated human CTGF
# Method: Binding of some fusion proteins was tested by a Homogeneous Time Resolved Fluorescence (HTRF assay). In detail, 1 nM of biotinylated human CTGF (R&D Systems) was incubated for 1 h with a titration of some lipocalins starting at 5 nM in 384 Flat Bottom White Polystyrol microtiter plate (Greiner). Samples were diluted in PBS containing 0.1% Tween 20 and 2% BSA. As donor, Streptavidin-Terbium at a concentration of 0,006 μg/mL was used, the acceptor was 0.2 μg/mL anti-His-d2 (both CisBio). After another 1 h of incubation, the fluorescence intensity of the donor and acceptor on the plate was read using a fluorescence microplate reader M1000 (Tecan) with the standard settings recommended by CisBio. The calculated ratio of signals was used for the curve fitting performed in GraphPad Prism 7 software.
row,EC50 [nM],Binder
1,0.58,B4
2,0.58,B5
3,0.65,B6
4,0.68,B7
5,0.7,B8
6,0.72,B9
7,0.56,B10
8,0.83,B11
9,0.94,B12
10,0.63,B13
